From article PMC3332083 (Biochemistry, 2012)

What was measured:
SEC = target: the molecule itself; assay: SEC
dynamic light scattering = target: the molecule itself; assay: dynamic light scattering

B1: Serum amyloid A isoform SAA2.2 from the CE/J mouse strain, full-length (103 amino acids) (natural protein, mouse (CE/J strain), UniProt P05367 20-122, looked up)
chain: GFFSFVHEAFLGAGDMWRAYTDMKEAGWKDGDKYFHARGNYDAAQRGPGGVWAAEKISDGREAFQEFFGRGHEDTMADQEANRHGRSGKDPNYYRPPGLPDKY
Question: How did the “stoichiometry N” value (SEC) turn out when B1 was run?
Answer: 8 subunits

B2: Carboxy-terminal truncated SAA2.2 (SAA2.2ΔC), truncated after the ninetieth amino acid residue (domain or fragment, mouse (CE/J strain), UniProt P05367 20-109, looked up)
chain: GFFSFVHEAFLGAGDMWRAYTDMKEAGWKDGDKYFHARGNYDAAQRGPGGVWAAEKISDGREAFQEFFGRGHEDTMADQEANRHGRSGKD
Question: B2 was tested. Which “stoichiometry N” value (dynamic light scattering) did it give?
Answer: 70 to 170 subunits
